± gives the uncertainty stated by the source.
Experiment: self-splicing fitness, log relative to wild type (ln ratio); higher = more splicing; Tetrahymena group I intron in knt gene, E. coli kanamycin selection, DiMSum; sequences stand for … in CUCUCU…GGAGGGAAAAGUUAUCAGGCAUGCACCUGGUAGCUAGUCUUUAAACCAAUAGAUUGCAUCGGUUUAAAAGGCAAGACCGUCAAAUUGCGGGAAAGGGGUCAACAGCCGUUCAGUACCAAGUCUCAGGGGAAACUUUGAGAUGGCCUUGCAAAGGGUAUGGUAAUAAGCUGACGGACAUGGUCCUAACCACGCAGCCAAGUCCUAAGUCAACAGAUCUUCUGUUGAUAUGGAUGCAGUUCACAGACUAAAUGUCGGUCGGGGAAGAUGUAUUCUUCUCAUAAGAUAUAGUCGGACCUCUCCUUAAUGGGAGCUAGCGGAUGAAGUGAUGCAACACUGGAGCCGCUGGGAACUAAUUUGUAUGCGAAAGUAUAUUGAUUAGUUUUGGAGUACUCGUGGUCG
Outline: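 A randomised library covering all eight P1ex-region intron nucleotides was built with the intron in the knt kanamycin-resistance gene on pET-22b(+) and held in E. coli BL21(DE3). Cells were grown overnight at 37°C or 30°C on LB agar, with or without 25 μg/mL kanamycin, plus 100 μg/mL carbenicillin, 50 μM IPTG and 0.2% rhamnose, and pooled colonies were amplicon-sequenced on an Illumina HiSeq 2500. DiMSum fitness is the error-weighted combination of wild-type-normalised replicate fold changes, kanamycin versus none.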

Sequence | self-splicing fitness (ln) (30 °C) | self-splicing fitness (ln) (37 °C)
UUUCAGCAAUAUUACGAGAC | -2.68 ± 0.36 | -3.57 ± 0.46
UCUGAGCAAUAUUACGCUUG | -4.34 ± 0.46 | -2.31 ± 0.3
CAGUAGCAAUAUUACGAGAU | -4.27 ± 0.46 | -1.9 ± 0.27
GUGAAGCAAUAUUACGCGGC | -2.03 ± 0.33 | -1.24 ± 0.4
GCUAAGCAAUAUUACGUCGG | -1.33 ± 0.099 | -0.876 ± 0.13
GACGAGCAAUAUUACGUCCU | -3.24 ± 0.25 | -1.81 ± 0.25
UGGCAGCAAUAUUACGGGAG | -3.13 ± 0.21 | -1.15 ± 0.14
GCAAAGCAAUAUUACGCCCA | -1.56 ± 0.16 | -0.194 ± 0.15
AUAAAGCAAUAUUACGCCAC | -1.94 ± 0.38 | 
UUGUAGCAAUAUUACGGGUG | -2.02 ± 0.11 | -0.808 ± 0.096
CGUUAGCAAUAUUACGCUUG | -1.71 ± 0.12 | -1.26 ± 0.15
CGGCAGCAAUAUUACGUAGA | -2.33 ± 0.12 | -1.19 ± 0.17
GCGUAGCAAUAUUACGAACU | -0.546 ± 0.13 | -0.322 ± 0.11
AAAGAGCAAUAUUACGUAGU | -2.39 ± 0.16 | -2.46 ± 0.22
AUGUAGCAAUAUUACGGGUC | -3.49 ± 0.4 | -2.95 ± 0.43
CCAUAGCAAUAUUACGCGAG | -2.77 ± 0.16 | -1.22 ± 0.13
GCAAAGCAAUAUUACGCUUA | -2.59 ± 0.15 | -1.46 ± 0.12
CCCUAGCAAUAUUACGGCCU | -2.9 ± 0.21 | 
GGUCAGCAAUAUUACGACAG | -0.391 ± 0.11 | 0.151 ± 0.13
UGCCAGCAAUAUUACGGCAC | -2.9 ± 0.33 | -2.56 ± 0.3
AGGUAGCAAUAUUACGAAUG | -3.277 ± 0.026 | -1.83 ± 0.037
CGUAAGCAAUAUUACGAAUC |  | -2.06 ± 0.3
UAGGAGCAAUAUUACGUCAA |  | -2.27 ± 0.46
GCGCAGCAAUAUUACGCUAA | -1.42 ± 0.085 | -1.06 ± 0.11
AGUUAGCAAUAUUACGUCGG | -3.45 ± 0.23 | -1.67 ± 0.16

Sequence | self-splicing fitness (ln) (30 °C) | self-splicing fitness (ln) (37 °C)
UGCCAGCAAUAUUACGAAUG | -1.3 ± 0.18 | 0.0957 ± 0.17
AUUGAGCAAUAUUACGGACU | -2.64 ± 0.21 | -0.639 ± 0.14
GCCUAGCAAUAUUACGCAGC | -4.41 ± 0.36 | -1.52 ± 0.19
AUACAGCAAUAUUACGCGAG | -2.35 ± 0.097 | -0.829 ± 0.1
CCCUAGCAAUAUUACGAAGC | -2.97 ± 0.43 | -2.92 ± 0.27
GUCUAGCAAUAUUACGUCUA | -1.33 ± 0.23 | -1.22 ± 0.16
UUUAAGCAAUAUUACGUGCG | -0.659 ± 0.088 | -0.486 ± 0.11
CCUCAGCAAUAUUACGCCGU | -3.05 ± 0.23 | -2.08 ± 0.25
GUCGAGCAAUAUUACGACCU |  | -1.74 ± 0.26
ACCUAGCAAUAUUACGGUUC | -4.77 ± 0.34 | -2.62 ± 0.24
GAGGAGCAAUAUUACGGCAC | -2.08 ± 0.19 | -1.64 ± 0.19
CCUUAGCAAUAUUACGCAUG | -3.78 ± 0.19 | -2.14 ± 0.18
ACGGAGCAAUAUUACGAGAG | -2.06 ± 0.34 | -2.22 ± 0.45
GGUUAGCAAUAUUACGGAUG | -0.648 ± 0.1 | -0.92 ± 0.14
CCAAAGCAAUAUUACGCGGC | -3.34 ± 0.18 | -3.15 ± 0.32
CGUGAGCAAUAUUACGGGGG | -2.65 ± 0.29 | -3.28 ± 0.37
GACAAGCAAUAUUACGUCAC | -2.9 ± 0.23 | -2.75 ± 0.29
GAAGAGCAAUAUUACGAUCC | -1.84 ± 0.39 | 
AAUUAGCAAUAUUACGUUAG | -4.03 ± 0.28 | -3.13 ± 0.26
UAACAGCAAUAUUACGUAUA | -1.4 ± 0.062 | -0.86 ± 0.069
GGGAAGCAAUAUUACGAACG | -0.494 ± 0.086 | 0.55 ± 0.16
AUUCAGCAAUAUUACGAUCC | -0.321 ± 0.19 | -0.287 ± 0.25
ACGAAGCAAUAUUACGAAGC | -3.6 ± 0.27 | -2.61 ± 0.3
UGGAAGCAAUAUUACGGGUC |  | -3.04 ± 0.38
CGGCAGCAAUAUUACGCACU | -1.45 ± 0.086 | -0.361 ± 0.1

Sequence | self-splicing fitness (ln) (30 °C) | self-splicing fitness (ln) (37 °C)
CAUAAGCAAUAUUACGCCGA |  | -1.71 ± 0.48
UUAUAGCAAUAUUACGUUGA | -2.54 ± 0.42 | -1.58 ± 0.27
AAGAAGCAAUAUUACGGCGC | -0.183 ± 0.19 | -0.28 ± 0.25
ACGAAGCAAUAUUACGUCUG | -0.601 ± 0.069 | -0.997 ± 0.092
AUUUAGCAAUAUUACGUGGU | -2.91 ± 0.18 | -2.45 ± 0.29
AUGCAGCAAUAUUACGAGGC | -1.94 ± 0.23 | -2.34 ± 0.33
UUCUAGCAAUAUUACGAAAU | -2.85 ± 0.28 | -1.75 ± 0.32
GUGGAGCAAUAUUACGAGCU | -3.17 ± 0.26 | -2.01 ± 0.28
AGUAAGCAAUAUUACGUCUG | -3.21 ± 0.17 | -1.49 ± 0.12
GGAUAGCAAUAUUACGAUAU | -0.868 ± 0.14 | -0.583 ± 0.19
CACGAGCAAUAUUACGUGUC | -3.87 ± 0.2 | -2.52 ± 0.14
CACUAGCAAUAUUACGUUAU | -3.42 ± 0.22 | -3.52 ± 0.23
GAGUAGCAAUAUUACGUUUU | -2.6 ± 0.22 | -2.12 ± 0.24
CCAAAGCAAUAUUACGGCAG | -0.931 ± 0.074 | -0.49 ± 0.11
UUAGAGCAAUAUUACGCACA | -0.745 ± 0.08 | -0.314 ± 0.11
GACGAGCAAUAUUACGUAAA | -2.58 ± 0.18 | 
GCUGAGCAAUAUUACGACGU | -1.45 ± 0.057 | -0.232 ± 0.064
UCCAAGCAAUAUUACGAGCC | -2.51 ± 0.49 | -1.88 ± 0.29
AGACAGCAAUAUUACGUUUC | -4.68 ± 0.36 | -3.7 ± 0.42
CGCCAGCAAUAUUACGGAUU | -3.66 ± 0.19 | -0.897 ± 0.097
GACUAGCAAUAUUACGAGGG | -3.34 ± 0.18 | -2.65 ± 0.2
AACGAGCAAUAUUACGGGUG | -3.4 ± 0.17 | -2.34 ± 0.2
UCCAAGCAAUAUUACGUUCG | -3.57 ± 0.27 | -2.2 ± 0.21
AUAUAGCAAUAUUACGUAAC | -1.11 ± 0.21 | -1.86 ± 0.38
UUGCAGCAAUAUUACGGCCG | -1.21 ± 0.096 | -0.459 ± 0.12

Sequence | self-splicing fitness (ln) (30 °C) | self-splicing fitness (ln) (37 °C)
GCGUAGCAAUAUUACGCGUC | -2.75 ± 0.28 | -2.06 ± 0.46
GAAGAGCAAUAUUACGUCUA | -1.86 ± 0.13 | -1.01 ± 0.13
AGUAAGCAAUAUUACGAAUU | -2.92 ± 0.42 | 
AAACAGCAAUAUUACGUCAU | -3.39 ± 0.12 | -1.55 ± 0.085
UAAAAGCAAUAUUACGAUGA | -0.245 ± 0.085 | 0.0881 ± 0.087
UAACAGCAAUAUUACGGUUA | -1.59 ± 0.1 | -0.652 ± 0.096
GAGUAGCAAUAUUACGCGCU |  | -0.5 ± 0.39
AUCAAGCAAUAUUACGUCUG | -1.16 ± 0.062 | -0.603 ± 0.076
CUAAAGCAAUAUUACGGAAA | -4.24 ± 0.37 | -2.44 ± 0.35
GGCUAGCAAUAUUACGGGAG | -2.17 ± 0.14 | -1.84 ± 0.19
CGCCAGCAAUAUUACGAGCA | -0.418 ± 0.064 | 0.817 ± 0.092
CGUGAGCAAUAUUACGAACA | -0.649 ± 0.15 | -0.766 ± 0.17
GCAUAGCAAUAUUACGGCGG | -2.63 ± 0.19 | -2.26 ± 0.37
GUUUAGCAAUAUUACGCGUA | -0.947 ± 0.14 | -0.606 ± 0.15
UCACAGCAAUAUUACGGCCG | -1.24 ± 0.1 | -0.536 ± 0.15
AAAGAGCAAUAUUACGAAAU | -2.67 ± 0.23 | -2.4 ± 0.24
UCCGAGCAAUAUUACGCAGU | -2.79 ± 0.33 | -2.31 ± 0.28
UUUCAGCAAUAUUACGGCAC | -1.79 ± 0.19 | -2.33 ± 0.24
ACAUAGCAAUAUUACGCGCC | -0.408 ± 0.16 | 0.199 ± 0.26
CAAAAGCAAUAUUACGGCGC | -2.33 ± 0.13 | -1.5 ± 0.18
CAAAAGCAAUAUUACGCUGA | -3.25 ± 0.2 | -1.81 ± 0.15
AAAUAGCAAUAUUACGAGGU | -2.99 ± 0.26 | -1.28 ± 0.19
AGGGAGCAAUAUUACGCGGU | -3.98 ± 0.21 | -3.05 ± 0.24
